Source: patent US20200317768A1 (published 2020)

Tests used:
[1] = molecular target: T1, cynomolgus monkey FcγRIIa2 extracellular domain, His-tagged (cynomolgus monkey); test: SPR (BIACORE), captured antibody, FcgR as analyte
T1 construct: also called cyno FcγRIIa2; cynoFcgRIIa2; not shown: C-terminal His-tag
T1 chain: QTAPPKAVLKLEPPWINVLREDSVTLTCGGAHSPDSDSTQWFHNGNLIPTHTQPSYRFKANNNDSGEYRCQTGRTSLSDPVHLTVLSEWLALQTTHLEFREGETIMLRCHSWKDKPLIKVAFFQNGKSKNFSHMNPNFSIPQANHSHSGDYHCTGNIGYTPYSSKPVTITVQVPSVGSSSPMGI

[2] = molecular target: T2, cynomolgus monkey FcγRIIa3 extracellular domain, His-tagged (cynomolgus monkey); test: SPR (BIACORE), captured antibody, FcgR as analyte
T2 construct: also called cyno FcγRIIa3; cynoFcgRIIa3; not shown: C-terminal His-tag
T2 chain: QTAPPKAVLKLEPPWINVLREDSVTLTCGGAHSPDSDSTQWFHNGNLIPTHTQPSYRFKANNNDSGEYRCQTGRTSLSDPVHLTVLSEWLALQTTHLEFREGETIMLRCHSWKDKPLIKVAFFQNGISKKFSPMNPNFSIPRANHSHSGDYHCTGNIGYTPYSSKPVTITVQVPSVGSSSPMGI

[3] = molecular target: T3, human FcγRIIaR extracellular domain, His-tagged (human, UniProt P12318 34-217); test: SPR (BIACORE), captured antibody, FcgR as analyte
T3 construct: also called human FcγRIIa (type R); FcgRIIaR; not shown: C-terminal His-tag
T3 chain: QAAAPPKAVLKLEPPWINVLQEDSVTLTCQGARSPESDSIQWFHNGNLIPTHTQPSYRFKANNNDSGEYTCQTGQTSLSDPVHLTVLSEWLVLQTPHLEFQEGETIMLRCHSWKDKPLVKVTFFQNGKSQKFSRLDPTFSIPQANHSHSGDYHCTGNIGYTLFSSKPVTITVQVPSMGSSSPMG

[4] = molecular target: T4, human FcγRIIIaV extracellular domain, His-tagged (human, UniProt P08637 17-208); test: SPR (BIACORE), captured antibody, FcgR as analyte
T4 construct: also called FcgRIIIaV; not shown: C-terminal His-tag

[5] = molecular target: T5, cynomolgus monkey FcγRIIb extracellular domain, His-tagged (cynomolgus monkey); test: SPR (BIACORE), captured antibody, FcgR as analyte
T5 construct: also called cyno FcγRIIb; cynoFcγRIIb; not shown: C-terminal His-tag
T5 chain: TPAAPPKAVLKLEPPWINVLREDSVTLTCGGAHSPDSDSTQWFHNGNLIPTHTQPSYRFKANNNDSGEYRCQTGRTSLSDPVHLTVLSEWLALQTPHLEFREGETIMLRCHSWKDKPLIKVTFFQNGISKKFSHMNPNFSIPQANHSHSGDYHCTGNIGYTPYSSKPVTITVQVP

[6] = molecular target: T6, cynomolgus monkey FcγRIIIaS extracellular domain, His-tagged (cynomolgus monkey, UniProt Q8SPW2 21-206 at identity 1.00)); test: SPR (BIACORE), captured antibody, FcgR as analyte
T6 construct: also called cyno FcγRIIIaS; cynoFcγRIIIaS; not shown: C-terminal His-tag
T6 chain: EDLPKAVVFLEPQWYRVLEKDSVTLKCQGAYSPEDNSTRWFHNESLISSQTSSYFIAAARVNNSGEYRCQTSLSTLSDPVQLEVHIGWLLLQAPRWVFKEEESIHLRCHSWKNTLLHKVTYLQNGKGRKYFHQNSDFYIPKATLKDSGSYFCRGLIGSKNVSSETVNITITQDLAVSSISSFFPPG

[7] = molecular target: T7, human FcγRIIaH extracellular domain, His-tagged (human, UniProt P12318 34-217); test: SPR (BIACORE), captured antibody, FcgR as analyte
T7 construct: also called human FcγRIIa (type H); FcgRIIaH; not shown: C-terminal His-tag
T7 sequence: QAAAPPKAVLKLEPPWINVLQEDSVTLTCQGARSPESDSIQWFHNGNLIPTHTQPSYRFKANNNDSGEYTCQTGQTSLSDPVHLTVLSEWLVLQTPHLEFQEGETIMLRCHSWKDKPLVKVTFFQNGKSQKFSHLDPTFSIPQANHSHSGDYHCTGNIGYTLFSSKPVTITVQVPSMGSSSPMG

[8] = molecular target: T8, cynomolgus monkey FcγRIIa1 extracellular domain, His-tagged (cynomolgus monkey); test: SPR (BIACORE), captured antibody, FcgR as analyte
T8 construct: also called cyno FcγRIIa1; cynoFcgRIIa1; not shown: C-terminal His-tag
T8 chain: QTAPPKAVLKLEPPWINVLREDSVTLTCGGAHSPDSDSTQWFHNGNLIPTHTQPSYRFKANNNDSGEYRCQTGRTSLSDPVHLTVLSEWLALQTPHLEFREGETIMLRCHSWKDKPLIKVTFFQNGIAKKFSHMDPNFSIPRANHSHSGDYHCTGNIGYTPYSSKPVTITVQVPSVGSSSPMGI

[9] = molecular target: T6, cynomolgus monkey FcγRIIIaS …; test: SPR (BIACORE); KD of SG1 divided by KD of variant;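 note: relative to parent M103205H795-SG1 carrying the SG1 human heavy chain constant region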

T4 sequence (P08637 17-208 F176V): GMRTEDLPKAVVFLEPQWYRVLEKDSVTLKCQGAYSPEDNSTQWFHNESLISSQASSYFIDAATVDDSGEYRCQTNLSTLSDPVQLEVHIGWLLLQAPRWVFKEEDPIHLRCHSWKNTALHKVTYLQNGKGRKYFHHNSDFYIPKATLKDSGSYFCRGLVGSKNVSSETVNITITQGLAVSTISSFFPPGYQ

Row | Binder | Kd [1] [nM] | Kd [2] [nM] | Kd [3] [nM] | Kd [4] [nM] | Kd [5] [nM] | Kd [6] [nM] | Kd [7] [nM] | Kd [8] [nM] | KD fold (SG1 = 1) [9] [fold]
1 | M103205H795-MY464/M103202L889-SK1 (antibody, human IgG1, kappa, copies: 2 + 2) heavy: QVTLKESGPVLVKPTETLTLTCTVSGIDLSHDDISWVRQAPGKGLEWVGIISYAGSTYYASWAKGRLTISKDTSKNQVVLTMTNMDPVDTATYYCARGVPAYSHGGDLWGQGTLVTVSSASTKGPSVFPLAPSSKSTSGGTAALGCLVKDYFPEPVTVSWNSGALTSGVHTFPAVLQSSGLYSLSSVVTVPSSSLGTQTYICNVNHKPSNTKVDKKVEPKSCDKTHTCPPCPIPELLTGPSVFLFPPKPKDTLMISRTPEVTCVVVDVSDEDPEVKFNWYVDGVEVHNAKTKPREEQYNSTYRVVSVLTVLHQDWLNGKEYKCKVSNKALPKPIEKTISKAKGQPREPQVYTLPPSREEMTKNQVSLTCLVKGFYPSDIAVEWESNGQPENNYKTTPPVLDSDGSFFLYSKLTVDKSRWQQGNVFSCSVMHEALHNHYTQKSLSLSP light: DIVMTQSPATLSLSPGERATLSCTSSQSVYHANWLSWFQQKPGQPPKLLIYWASTLAYGVPSRFSGSGSGTDFTLTISSLQPEDAATYYCAGGYGGGRYAFGQGTKVEIKRTVAAPSVFIFPPSDEQLKSGTASVVCLLNNFYPREAKVQWKVDNALQSGNSQESVTEQDSKDSTYSLSSTLTLSKADYEKHKVYACEVTHQGLSSPVTKSFNRGEC | 1500 | 3900 | 260 | 4400 | 500 | 1700 | 170 | 1900 | 0.2
2 | M103205H795-MY467/M103202L889-SK1 (antibody, human IgG1, kappa, copies: 2 + 2) heavy: QVTLKESGPVLVKPTETLTLTCTVSGIDLSHDDISWVRQAPGKGLEWVGIISYAGSTYYASWAKGRLTISKDTSKNQVVLTMTNMDPVDTATYYCARGVPAYSHGGDLWGQGTLVTVSSASTKGPSVFPLAPSSKSTSGGTAALGCLVKDYFPEPVTVSWNSGALTSGVHTFPAVLQSSGLYSLSSVVTVPSSSLGTQTYICNVNHKPSNTKVDKKVEPKSCDKTHTCPPCPMPELLTGPSVFLFPPKPKDTLMISRTPEVTCVVVDVSDEDPEVKFNWYVDGVEVHNAKTKPREEQYNSTYRVVSVLTVLHQDWLNGKEYKCKVSNKALPKPIEKTISKAKGQPREPQVYTLPPSREEMTKNQVSLTCLVKGFYPSDIAVEWESNGQPENNYKTTPPVLDSDGSFFLYSKLTVDKSRWQQGNVFSCSVMHEALHNHYTQKSLSLSP light: DIVMTQSPATLSLSPGERATLSCTSSQSVYHANWLSWFQQKPGQPPKLLIYWASTLAYGVPSRFSGSGSGTDFTLTISSLQPEDAATYYCAGGYGGGRYAFGQGTKVEIKRTVAAPSVFIFPPSDEQLKSGTASVVCLLNNFYPREAKVQWKVDNALQSGNSQESVTEQDSKDSTYSLSSTLTLSKADYEKHKVYACEVTHQGLSSPVTKSFNRGEC | 1900 | 4700 | 360 | 4800 | 510 | 1700 | 180 | 1900 | 0.2
3 | M103205H795-MY466/M103202L889-SK1 (antibody, human IgG1, kappa, copies: 2 + 2) heavy: QVTLKESGPVLVKPTETLTLTCTVSGIDLSHDDISWVRQAPGKGLEWVGIISYAGSTYYASWAKGRLTISKDTSKNQVVLTMTNMDPVDTATYYCARGVPAYSHGGDLWGQGTLVTVSSASTKGPSVFPLAPSSKSTSGGTAALGCLVKDYFPEPVTVSWNSGALTSGVHTFPAVLQSSGLYSLSSVVTVPSSSLGTQTYICNVNHKPSNTKVDKKVEPKSCDKTHTCPPCPLPELLTGPSVFLFPPKPKDTLMISRTPEVTCVVVDVSDEDPEVKFNWYVDGVEVHNAKTKPREEQYNSTYRVVSVLTVLHQDWLNGKEYKCKVSNKALPKPIEKTISKAKGQPREPQVYTLPPSREEMTKNQVSLTCLVKGFYPSDIAVEWESNGQPENNYKTTPPVLDSDGSFFLYSKLTVDKSRWQQGNVFSCSVMHEALHNHYTQKSLSLSP light: DIVMTQSPATLSLSPGERATLSCTSSQSVYHANWLSWFQQKPGQPPKLLIYWASTLAYGVPSRFSGSGSGTDFTLTISSLQPEDAATYYCAGGYGGGRYAFGQGTKVEIKRTVAAPSVFIFPPSDEQLKSGTASVVCLLNNFYPREAKVQWKVDNALQSGNSQESVTEQDSKDSTYSLSSTLTLSKADYEKHKVYACEVTHQGLSSPVTKSFNRGEC | 1800 | 4400 | 280 | 4300 | 510 | 1800 | 170 | 1900 | 0.2
4 | M103205H795-MY468/M103202L889-SK1 (antibody, human IgG1, kappa, copies: 2 + 2) heavy: QVTLKESGPVLVKPTETLTLTCTVSGIDLSHDDISWVRQAPGKGLEWVGIISYAGSTYYASWAKGRLTISKDTSKNQVVLTMTNMDPVDTATYYCARGVPAYSHGGDLWGQGTLVTVSSASTKGPSVFPLAPSSKSTSGGTAALGCLVKDYFPEPVTVSWNSGALTSGVHTFPAVLQSSGLYSLSSVVTVPSSSLGTQTYICNVNHKPSNTKVDKKVEPKSCDKTHTCPPCPNPELLTGPSVFLFPPKPKDTLMISRTPEVTCVVVDVSDEDPEVKFNWYVDGVEVHNAKTKPREEQYNSTYRVVSVLTVLHQDWLNGKEYKCKVSNKALPKPIEKTISKAKGQPREPQVYTLPPSREEMTKNQVSLTCLVKGFYPSDIAVEWESNGQPENNYKTTPPVLDSDGSFFLYSKLTVDKSRWQQGNVFSCSVMHEALHNHYTQKSLSLSP light: DIVMTQSPATLSLSPGERATLSCTSSQSVYHANWLSWFQQKPGQPPKLLIYWASTLAYGVPSRFSGSGSGTDFTLTISSLQPEDAATYYCAGGYGGGRYAFGQGTKVEIKRTVAAPSVFIFPPSDEQLKSGTASVVCLLNNFYPREAKVQWKVDNALQSGNSQESVTEQDSKDSTYSLSSTLTLSKADYEKHKVYACEVTHQGLSSPVTKSFNRGEC | 2500 | 5200 | 470 | 6800 | 650 | 2300 | 280 | 2800 | 0.2
5 | M103205H795-MY465/M103202L889-SK1 (antibody, human IgG1, kappa, copies: 2 + 2) heavy: QVTLKESGPVLVKPTETLTLTCTVSGIDLSHDDISWVRQAPGKGLEWVGIISYAGSTYYASWAKGRLTISKDTSKNQVVLTMTNMDPVDTATYYCARGVPAYSHGGDLWGQGTLVTVSSASTKGPSVFPLAPSSKSTSGGTAALGCLVKDYFPEPVTVSWNSGALTSGVHTFPAVLQSSGLYSLSSVVTVPSSSLGTQTYICNVNHKPSNTKVDKKVEPKSCDKTHTCPPCPKPELLTGPSVFLFPPKPKDTLMISRTPEVTCVVVDVSDEDPEVKFNWYVDGVEVHNAKTKPREEQYNSTYRVVSVLTVLHQDWLNGKEYKCKVSNKALPKPIEKTISKAKGQPREPQVYTLPPSREEMTKNQVSLTCLVKGFYPSDIAVEWESNGQPENNYKTTPPVLDSDGSFFLYSKLTVDKSRWQQGNVFSCSVMHEALHNHYTQKSLSLSP light: DIVMTQSPATLSLSPGERATLSCTSSQSVYHANWLSWFQQKPGQPPKLLIYWASTLAYGVPSRFSGSGSGTDFTLTISSLQPEDAATYYCAGGYGGGRYAFGQGTKVEIKRTVAAPSVFIFPPSDEQLKSGTASVVCLLNNFYPREAKVQWKVDNALQSGNSQESVTEQDSKDSTYSLSSTLTLSKADYEKHKVYACEVTHQGLSSPVTKSFNRGEC | 2800 | 5200 | 600 | 5500 | 630 | 1900 | 250 | 2000 | 0.2
